“Also recorded” adds a separate entry of the source.
How the values were obtained:
[1] = cited from earlier work
[2] = elevated salt, dilution, extended storage; cited from earlier work
C. difficile Strain 630 = test: Bioassay to measure sporulation (spore and total cell CFU/ml); type: cell-based, Clostridium difficile
Procedure: All procedures were performed under anaerobic conditions at room temperature unless otherwise stated. All media and agar plates used were placed in an anaerobic chamber at least 24 hours prior to use. A standard bioassay to measure sporulation was performed using untreated cells, those mixed with nanoparticles consisting of either the Spo0A TFD or empty nanoparticles (containing no TFDs), to determine the effect on C. difficile Strain 630 (a laboratory reference strain that has been sequenced).
An initial overnight culture was generated by mixing 100 μl of a glycerol stock of C. difficile (consisting of spore cells of frozen in 10% glycerol and stored at −20° C.) with 10 ml Robertson's Cooked Meat Medium (Robertson (1916) J. Path. Bacteria 20: 327-349). The following day, 10 ml BHIS media (Brain Heart Infusion media, (McFaddin J. F. (1985) Media for Isolation-Cultivation-Identification-Maintenance of medical Bacteria, Vol. I, Williams and Wilkins, Baltimore) supplemented with 0.1% L-cysteine) was inoculated with 1% of the culture grown in Robertson's (consisting mostly of spore cells). […] 100 μl of this culture was used to inoculate 10 ml of BHIS which was allowed to grow until it had reached an OD600 of approximately 0.3. At this stage the growth is due to germination of spores and consists mainly of exponentially growing vegetative cells. This culture was then used to inoculate the experimental cultures that were performed in triplicate in 10 ml cultures in BHIS incubated at 37° C. The three conditions used were: A) untreated cells; B) treated with 1% (v/v) empty nanoparticles to give a final concentration of 8 μg/ml compound 7—12; C) nanoparticles loaded with Spo0A TFD to give final concentrations of 8 μg/ml compound 7—12 and 0.4 μg/ml TFD.
Aliquots were withdrawn from the cultures at TO, 24, 48, 72 and 96 h and used to calculate the total cell density and spore cell density.
Calculation of Spore Cell Density To measure the number of Colony Forming Units per ml of culture (CFU/ml) of spore cells, a 0.5 ml aliquot was withdrawn and exposed to anaerobic conditions for 25 minutes at 60° C. This heat shock step efficiently kills the vegetative cells but not the spores. A serial dilution of the treated sample was prepared in PBS buffer (Phosphate Buffered Saline) over a range of 10^−1 to 10^−6. 10 μl of each dilution was spotted in duplication onto BHIS plates supplemented with 0.1% taurocholate (which enhances germination), the spots allowed to dry and the plates incubated for 24 h at 37° C. The number of colonies was then counted and the CFU/ml of original culture calculated.
To measure CFU/ml of total cells, meaning vegetative cells plus spore cells, a 0.5 ml aliquot was withdrawn and exposed to anaerobic conditions for 25 minutes at room temperature (to control for the time taken to heat shock the spore sample). The samples were then processed as described above.

C. difficile [3] = test: Cell growth by Optical Density at 600 nm (Example 2); type: cell-based, Clostridium difficile; settings: OD 600 nm; FIG. 4
Procedure: (§1) Conditions of cell growth were as described in Example 1, with care being taken to ensure that the experimental culture consisted of early-exponential vegetative cells that would enter stationary phase during the course of the experiment. Toxin production is developmentally controlled and only beings to occur as cells enter this phase.
Optical Density was measured at 600 nm in a standard spectrophotometer quantified cell growth.

[4] = test system: Toxins A and B (encoded by tcdAB) in C. difficile; test: Premier ToxinA&B ELISA of toxin production; type: cell-based, Clostridium difficile; settings: FIG. 5
Procedure: A commercially available ELISA kit (Enzyme-Linked Immunosorbent Assay), Premier™ ToxinA&B, was obtained from Meridian Bioscience Inc. All assays were performed following manufacturers instructions.
as §1
The absorbance of the cells was used to assay an equal amount of biomaterial in each experiment using the described ELISA kit. […] This was set at 100% activity and all other samples were compared to this (FIG. 5). […] At 48 h, where maximal production is expected, only 22% of the untreated level of production was achieved. The maximum level of production for the treated cells was 32% at 72 h.

C. difficile [5] = test: Minimum Inhibitory Concentration (MIC) method; settings: with reference to the compound 7—12 component; 24-well plates, 2 ml BHIS; 1 nM SigH TFD in the loaded nanoparticle; FIG. 7
Procedure: Growth was determined by the Minimum Inhibitory Concentration (MIC) method (Wiegand (2008) Nature Protocols 3: 163-175). Essentially, the antibiotic is diluted to the point where it is ineffective and is no longer able to prevent growth, as judged by the media remaining clear. For C. difficile, these experiments were performed in duplicate in 24-well cell plates containing 2 ml BHIS media with various concentrations of empty nanoparticles or those loaded with the SigH TFD.

C. difficile [6] = test: Cell growth by Optical Density at 420 nm (Example 3); type: cell-based, Clostridium difficile; settings: absorbance 420 nm, over the time course; FIG. 6
Procedure: Optical Density was measured at 420 nm in a standard spectrophotometer quantified cell growth.

Molecule: Nc1c2c([n+](CCCCCCCCCC[n+]3c4c(c(N)c5ccccc53)CCCC4)c3ccccc13)CCCC2.[Cl-].[Cl-] [Compound 7, 10,10′-(decane-1,10-diyl)bis(9-amino-1,2,3,4-tetrahydroacridinium)dichloride]
- in vitro toxicity relative to dequalinium [1]: lower toxicity in vitro compared to dequalinium; also recorded: less in vitro toxicity than dequalinium
- stability of complexes formed [2]: forms more stable complexes

B1: Spo0A TFD: dumbbell TFD from Spo0ADB1/Spo0ADB2 with Spo0A binding site, delivered in compound 7—12 nanoparticles (nucleic acid)
chain 1: CTTGGTTTTTCCAAGAGCTTGTGTAGAAGGTTGTCCACAAGTTGTGAAATTTGTCGAAAAGCTATTTATC
chain 2: CCCTCTTTTTGAGGGGATAAATAGCTTTTCGACAAATTTCACAACTTGTGGACAACCTTCTACACAAGCT
modifications: dumbbell decoy delivered in nanoparticles, further chemistry not given here
- density of spores (C. difficile Strain 630; after heat shock 25 minutes at 60° C., 8 μg/ml compound 7—12 and 0.4 μg/ml TFD, FIG. 3): 1.54×10^2 CFU/ml
- effect on sporulation (in words) (C. difficile Strain 630; delivery to cells with nanoparticles, Example 1): strong inhibition of sporulation
- spores as percentage of total cells (C. difficile Strain 630; treated samples, FIG. 3): < 8.66×10^−5%
- reduction of sporulation relative to untreated culture (C. difficile Strain 630; treated versus untreated, FIG. 3): six-fold
- density of total cells (C. difficile Strain 630; vegetative cells plus spore cells, nanoparticles giving 8 μg/ml compound 7—12 and 0.4 μg/ml TFD, BHIS, 37° C., FIG. 3): 1.78×10^8 CFU/ml

B2: TcdR TFD: dumbbell TFD from TcdRDB1/TcdRDB2 with TcdR recognition site, delivered in compound 7—12 nanoparticles (nucleic acid)
chain 1: CTTGGTTTTTCCAAGAAGTTTACAAAATTATATTAGAATAACTTTTTATT
chain 2: CCCTCTTTTTGAGGGAATAAAAAGTTATTCTAATATAATTTTGTAAACTT
modifications: dumbbell, delivered in nanoparticles, chemistry not fully specified
notes: dumbbell TFD from TcdRDB1/TcdRDB2 with TcdR recognition site, delivered in compound 7—12 nanoparticles
- cell growth (growth curves, in words) (C. difficile [3]): failed to grow in a manner similar to untreated cells
- toxin production, % of untreated level ([4]; at 48 h, untreated cells at 48 h set at 100%): 22%
- maximum level of toxin production, % of untreated 48 h level ([4]; at 72 h, untreated cells at 48 h set at 100%): 32%
- pattern of Toxins production (in words) ([4]; time course): produces much less of the Toxins

B3: SigH TFD: dumbbell TFD from SigH DB1/DB2 with binding sites for both Spo0A and SigH, delivered in compound 7—12 nanoparticles (nucleic acid)
chain 1: CTTGGTTTTTCCAAGTAATACGACAAACTAGTTAAATTTCATTGAAGGAATAAAAATATAATTATAGAATTGATTA
chain 2: GCCTCTTTTTGAGGCTAATCAATTCTATAATTATATTTTTATTCCTTCAATGAAATTTAACTAGTTTGTCGTATTA
modifications: dumbbell decoy delivered in nanoparticles, further chemistry not given here
- MIC (C. difficile [5]): 3.4 nM
- effect on sporulation (in words) (C. difficile Strain 630; time course similar to Example 1, FIG. 8): block sporulation significantly

B4: FapR TFD: dumbbell TFD from FapRDB1/FapRDB2 with FapR recognition site, delivered in compound 7—12 nanoparticles (nucleic acid)
chain 1: CTTGGTTTTTCCAAGTAGAATTAGTACCTGATACTAATAATT
chain 2: GCCTCTTTTTGAGGCAATTATTAGTATCAGGTACTAATTCTA
modifications: nanoparticle delivery, chemistry not fully specified
notes: dumbbell TFD from FapRDB1/FapRDB2 with FapR recognition site, delivered in compound 7—12 nanoparticles
- cell growth (growth curves, in words) (C. difficile [6]): failed to grow over the time course of the experiment

Reference: patent publication US20140274800A1, “TRANSCRIPTION FACTOR DECOYS FOR THE TREATMENT AND PREVENTION OF INFECTIONS CAUSED BY BACTERIA INCLUDING CLOSTRIDIUM DIFFICILE” (PROCARTA BIOSYSTEMS LTD., priority 2013, published 2014)
